Assay results as given in patent US20150306234.
Where a chain is given by its changes, count along the chain named.

How the values were obtained:
BDD FVIII mutein F2093C = tested on: T1, BDD FVIII mutein F2093C
T1 sequence: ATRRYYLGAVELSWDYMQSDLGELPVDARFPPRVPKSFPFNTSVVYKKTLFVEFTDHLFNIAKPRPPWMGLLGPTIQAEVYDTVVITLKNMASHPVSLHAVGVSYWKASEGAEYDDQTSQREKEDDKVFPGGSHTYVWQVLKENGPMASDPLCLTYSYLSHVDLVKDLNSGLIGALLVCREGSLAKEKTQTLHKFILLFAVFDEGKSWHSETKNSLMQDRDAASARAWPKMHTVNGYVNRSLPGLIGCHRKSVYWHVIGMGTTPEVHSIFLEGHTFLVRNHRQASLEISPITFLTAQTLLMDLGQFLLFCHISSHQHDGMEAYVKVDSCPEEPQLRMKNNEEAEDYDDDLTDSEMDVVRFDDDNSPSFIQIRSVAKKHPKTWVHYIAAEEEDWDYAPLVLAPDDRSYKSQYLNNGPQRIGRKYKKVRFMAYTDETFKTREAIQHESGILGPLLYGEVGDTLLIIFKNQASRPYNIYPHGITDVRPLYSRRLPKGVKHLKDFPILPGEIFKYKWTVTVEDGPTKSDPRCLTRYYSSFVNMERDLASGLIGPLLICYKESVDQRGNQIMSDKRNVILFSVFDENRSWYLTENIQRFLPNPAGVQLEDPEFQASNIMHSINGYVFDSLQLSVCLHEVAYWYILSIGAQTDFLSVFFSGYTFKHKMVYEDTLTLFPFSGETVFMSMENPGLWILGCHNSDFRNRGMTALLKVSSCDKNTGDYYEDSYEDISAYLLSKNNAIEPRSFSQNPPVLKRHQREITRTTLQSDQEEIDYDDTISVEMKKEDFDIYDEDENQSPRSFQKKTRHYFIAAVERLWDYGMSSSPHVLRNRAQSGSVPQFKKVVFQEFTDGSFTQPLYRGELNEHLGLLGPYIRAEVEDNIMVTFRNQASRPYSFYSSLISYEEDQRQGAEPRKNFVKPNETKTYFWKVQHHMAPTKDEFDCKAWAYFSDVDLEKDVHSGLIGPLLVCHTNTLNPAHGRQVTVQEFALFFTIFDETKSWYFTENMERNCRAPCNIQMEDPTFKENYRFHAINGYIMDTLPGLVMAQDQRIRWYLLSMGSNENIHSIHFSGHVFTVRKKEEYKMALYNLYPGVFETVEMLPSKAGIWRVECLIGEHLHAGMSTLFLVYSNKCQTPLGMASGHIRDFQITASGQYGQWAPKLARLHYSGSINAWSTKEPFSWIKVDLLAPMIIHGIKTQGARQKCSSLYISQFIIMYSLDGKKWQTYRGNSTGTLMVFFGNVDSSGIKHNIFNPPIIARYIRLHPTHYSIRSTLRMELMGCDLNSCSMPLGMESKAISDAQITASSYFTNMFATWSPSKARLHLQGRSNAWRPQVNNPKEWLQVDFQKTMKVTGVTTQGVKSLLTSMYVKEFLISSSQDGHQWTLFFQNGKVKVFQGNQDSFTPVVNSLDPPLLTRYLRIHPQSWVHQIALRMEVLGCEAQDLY

BDD FVIII mutein S2186C = tested on: T2, BDD FVIII mutein S2186C
T2 sequence: T1 sequence with C1199F, S1292C

thrombin (Haematologic Technologies, Essex Junction, Vt.)
thrombin cleavage, SDS-PAGE with silver staining (BDD FVIII mutein F2093C): Thrombin digestion of the muteins and control produced the expected cleavage fragments.
thrombin cleavage, SDS-PAGE with silver staining (BDD FVIII mutein S2186C): Thrombin digestion of the muteins and control produced the expected cleavage fragments.
